Reference: patent US20260234247A1 (published 2026)
Numbering of substitutions follows the chain as printed.

What was measured:
human LILRA3 = molecular target: T1, human LILRA3 (human, UniProt Q8N6C8 24-439); assay: ELISA, OD450, antibody at 200 nM; + = 2-fold over ISO
T1 construct: bought protein coated for ELISA; also called hLILRA3
Protocol: (§1) To further confirm binding affinity, selected clones were assayed in ELISA or FACS in a range of testing concentrations.

human LILRA2 = molecular target: T2, human LILRA2 (human, UniProt Q8N149 24-449); assay: as above
T2 construct: bought protein coated for ELISA; also called hLILRA2
T2 sequence (Q8N149 24-449 limits assumed): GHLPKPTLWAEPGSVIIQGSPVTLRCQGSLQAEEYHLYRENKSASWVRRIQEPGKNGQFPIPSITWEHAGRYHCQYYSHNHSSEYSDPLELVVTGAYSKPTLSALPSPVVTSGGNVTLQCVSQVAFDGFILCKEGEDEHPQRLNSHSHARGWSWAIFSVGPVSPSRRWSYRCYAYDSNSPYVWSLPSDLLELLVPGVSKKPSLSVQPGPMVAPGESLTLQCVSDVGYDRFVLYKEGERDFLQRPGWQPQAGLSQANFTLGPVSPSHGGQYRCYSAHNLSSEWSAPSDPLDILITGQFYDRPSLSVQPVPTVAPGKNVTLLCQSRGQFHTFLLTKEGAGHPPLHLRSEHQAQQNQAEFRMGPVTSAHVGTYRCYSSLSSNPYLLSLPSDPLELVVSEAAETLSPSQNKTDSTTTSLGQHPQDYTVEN
Protocol: as §1

human LILRA1 [1] = molecular target: T3, human LILRA1 (human, UniProt O75019 17-461, limits assumed); assay: as above
T3 construct: bought protein coated for ELISA; also called hLILRA1
T3 sequence (O75019 17-461 limits assumed): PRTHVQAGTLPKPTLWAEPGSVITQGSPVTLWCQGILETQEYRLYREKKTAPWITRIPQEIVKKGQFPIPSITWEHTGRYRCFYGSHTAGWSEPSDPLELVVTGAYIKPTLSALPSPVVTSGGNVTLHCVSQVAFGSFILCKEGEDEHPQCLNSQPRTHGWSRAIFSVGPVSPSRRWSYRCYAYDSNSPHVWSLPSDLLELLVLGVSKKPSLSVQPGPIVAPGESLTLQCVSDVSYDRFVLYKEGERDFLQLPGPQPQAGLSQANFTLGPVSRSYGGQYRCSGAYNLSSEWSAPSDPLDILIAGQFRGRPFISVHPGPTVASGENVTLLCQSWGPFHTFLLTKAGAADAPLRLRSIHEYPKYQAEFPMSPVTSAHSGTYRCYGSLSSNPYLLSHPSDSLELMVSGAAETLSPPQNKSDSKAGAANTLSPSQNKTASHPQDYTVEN
Protocol: as §1

human LILRA1 [2] = molecular target: T4, human LILRA1 (human, UniProt O75019 17-461, limits assumed); assay: ELISA, antibody at 200 nM, OD450; + = 2-fold over ISO
T4 construct: Bought protein; also called hLILRA1
T4 sequence (O75019 17-461 limits assumed): as above
Protocol: as §1

[3] = molecular target: T5, Cynomolgus LILRB2 on CHOK1 cells (cynomolgus); assay: flow cytometry on CHOK1-cyno LILRB2 cells
T5 construct: whole, on cells; also called CHOK1-Cyno LILRB2
Description: Anti-LILRB1 and anti-LILRB2 antibodies were also screened for their ability to bind rhesus macaque LILRB1 (Kactusbio, LLC: LIL-CM1B1 and LIL-CM1B3), cynomolgus LILRB1 (Kactusbio, LLC: LIL-CM1B2) and cynomolgus LILRB2 (Kactusbio, LLC: LIL-CM1B5) by ELISA and flow cytometry.

[4] = molecular target: T6, Rhesus LILRB1 (F7H3G7) on CHOK1 cells (rhesus macaque); assay: flow cytometry on CHOK1-rhesus LILRB1 (F7H3G7) cells
T6 construct: whole, on cells; also called CHOK1-Rhesus LILRB1 (F7H3G7)

Biotinylated LILRB2 [5] = molecular target: T7, Biotinylated LILRB2 (UniProt Q8N423 22-460, limits assumed, biotinylated (sites not given)); assay: epitope binning ELISA; coated antibody 1 ug/ml, biotinylated LILRB2; competitor LK-RB2-3 at 20 ug/ml
T7 construct: also called biotinylated-LILRB2 protein
T7 sequence (Q8N423 22-460 limits assumed): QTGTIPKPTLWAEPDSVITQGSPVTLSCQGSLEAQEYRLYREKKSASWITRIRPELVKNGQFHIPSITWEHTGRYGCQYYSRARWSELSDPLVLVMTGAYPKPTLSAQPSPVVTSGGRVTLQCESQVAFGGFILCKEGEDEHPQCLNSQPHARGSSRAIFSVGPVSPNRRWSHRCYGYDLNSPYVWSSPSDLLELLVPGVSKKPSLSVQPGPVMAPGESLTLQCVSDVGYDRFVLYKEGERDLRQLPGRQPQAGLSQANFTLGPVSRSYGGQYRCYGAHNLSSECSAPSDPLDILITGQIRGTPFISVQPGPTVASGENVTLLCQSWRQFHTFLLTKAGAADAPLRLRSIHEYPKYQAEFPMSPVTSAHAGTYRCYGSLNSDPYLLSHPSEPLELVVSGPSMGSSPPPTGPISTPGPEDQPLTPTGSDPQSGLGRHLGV

Biotinylated LILRB2 [6] = molecular target: T7, Biotinylated LILRB2; assay: epitope binning ELISA; coated antibody 1 ug/ml, biotinylated LILRB2; competitor LK-RB2-15 at 20 ug/ml
Protocol: (§2) Binding epitope of a subset of anti-LILRB1 and anti-LILRB2 antibodies was analyzed by epitope binning ELISA. Briefly, a panel of testing antibodies were coated onto ELISA plate. 50 ul/well Biotinylated LILRB1 or LILRB2 and 50 ul/well of competing antibodies were added to the coated plate and incubated at 37° C. for 1 hour. After Streptavidin-HRP (1:5000) incubation and TMB development, the plates were read at 450 nm using Molecular device spectra max plus384.

human LILRB1-his = molecular target: T8, human LILRB1-his (human, UniProt Q8NHL6 24-458, limits assumed); assay: SPR (Biacore 8K), antibody captured via Fc, LILRB1-his as analyte, 1:1 model
T8 construct: Analyte of the Biacore run; not shown: His tag
T8 sequence (Q8NHL6 24-458 limits assumed): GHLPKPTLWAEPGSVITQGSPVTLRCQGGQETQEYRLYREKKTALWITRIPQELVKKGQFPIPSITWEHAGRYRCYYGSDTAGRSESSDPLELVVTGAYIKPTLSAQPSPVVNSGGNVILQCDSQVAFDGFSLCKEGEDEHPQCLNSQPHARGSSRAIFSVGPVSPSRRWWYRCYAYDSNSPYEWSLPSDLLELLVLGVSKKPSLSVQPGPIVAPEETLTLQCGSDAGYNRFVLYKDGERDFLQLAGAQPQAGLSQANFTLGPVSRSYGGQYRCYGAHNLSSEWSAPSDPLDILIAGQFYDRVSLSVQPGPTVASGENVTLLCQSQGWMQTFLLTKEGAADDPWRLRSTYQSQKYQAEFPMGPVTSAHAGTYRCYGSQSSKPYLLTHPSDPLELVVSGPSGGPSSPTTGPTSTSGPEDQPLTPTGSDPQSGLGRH

Biotinylated LILRB2 [7] = molecular target: T7, Biotinylated LILRB2; assay: epitope binning ELISA; coated antibody 1 ug/ml, biotinylated LILRB2; competitor J19.h1 at 20 ug/ml
Protocol: as §2

Biotinylated LILRB2 [8] = molecular target: T7, Biotinylated LILRB2; assay: epitope binning ELISA; coated antibody 1 ug/ml, biotinylated LILRB2; competitor LK-RB2-14 at 20 ug/ml
Protocol: as §2

Biotinylated LILRB2 [9] = molecular target: T7, Biotinylated LILRB2; assay: epitope binning ELISA; coated antibody 1 ug/ml, biotinylated LILRB2; competitor LK-RB2-24 at 20 ug/ml
Protocol: as §2

Biotinylated LILRB2 [10] = molecular target: T7, Biotinylated LILRB2; assay: epitope binning ELISA; coated antibody 1 ug/ml, biotinylated LILRB2; competitor LK-RB2-2 at 20 ug/ml
Protocol: as §2

Biotinylated LILRB2 [11] = molecular target: T7, Biotinylated LILRB2; assay: epitope binning ELISA; coated antibody 1 ug/ml, biotinylated LILRB2; competitor hz73D1.v1 at 20 ug/ml
Protocol: as §2

human LILRB2-his = molecular target: T9, human LILRB2-his (human, UniProt Q8N423 22-460, limits assumed); assay: SPR (Biacore 8K), antibody captured via Fc, LILRB2-his as analyte, 1:1 model
T9 construct: Analyte of the Biacore run; not shown: His tag
T9 sequence (Q8N423 22-460 limits assumed): as the sequence (Q8N423 22-460 limits assumed) above

T1 sequence (Q8N6C8 24-439 limits assumed): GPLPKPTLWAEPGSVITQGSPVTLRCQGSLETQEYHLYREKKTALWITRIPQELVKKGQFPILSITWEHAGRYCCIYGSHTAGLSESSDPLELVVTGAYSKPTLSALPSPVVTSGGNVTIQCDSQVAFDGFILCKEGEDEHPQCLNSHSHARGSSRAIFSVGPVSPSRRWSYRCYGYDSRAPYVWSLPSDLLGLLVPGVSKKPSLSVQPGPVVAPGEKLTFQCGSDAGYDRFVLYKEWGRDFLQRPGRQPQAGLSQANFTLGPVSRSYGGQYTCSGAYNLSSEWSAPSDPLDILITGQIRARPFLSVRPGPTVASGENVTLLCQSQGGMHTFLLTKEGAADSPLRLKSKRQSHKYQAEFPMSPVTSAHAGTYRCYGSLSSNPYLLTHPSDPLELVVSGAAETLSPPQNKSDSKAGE

B1: LK-RB1-3 (antibody, human IgG4 S228P, kappa, V domains shown)
VH: QVQLQQPGAELVKPGTSVNLSCKASGYTFTSYWIHWVKQRPGRGLEWIGRINPYSSGTRYNEKFKNKATLTVDKPSSTAYMQLTSLTSEDSAVYYCARFDGAPDYFDFWGQGTTLTVSS
VL: DIVMTQSQKFMPTSVGDRVNVTCKASQNVGINVAWYQQKLGQSPKALIYSASYRYSGVPDRFTGSGSGTDFTLTINSVQSEDLADYFCQQYNNYPFTFGSGTKLEIKR
notes: anti-LILRB1 antibody
Human LILRA3
  binding result: binds

B2: LK-RB1-4 (antibody, human IgG4 S228P, kappa, V domains shown)
VH: QVQLQQPGAELVKPGASVKLPCKTSGYTFTSYWMHWVKQRPGRGLEWIGRIDPHYSGTKYNEKFKNKATMTVDTPSSTAYMQLSSLTSEDSAVYYCARFDGDPYYFDYWGPGTTLTVSS
VL: DIVMTQSQKFMSTSVGDRVSVTCKASQNVGTNVAWYKQKAGQSPKAVIYSASYRYSGVPDRFTGSGSGTDFTLSISNVQSEDLAEYFCQQYNNNPFTFGSGTKLEIKR
notes: anti-LILRB1 antibody
Human LILRA3
  binding result: binds

B3: LK-RB1-33 (antibody, human IgG4 S228P, kappa, V domains shown)
VH: QIQLVQSGPELKKPGDTVKISCKASGYTFTSYGMNWVKQAPGEGLKWMGWINTYSGVPTYGDDFKGRFAFSLETSASTAYLQINNLENEDTATYFCARRGRDSVVGHFDVWGTGTTVTVSS
VL: DIVMTQSHKFMSTSVGDRVSITCKASQDVNTAVAWYQQKPGQSPKLLIYWASTRHTGVPDRFTGSGSGTDFTLTISSVQAEDLALYYCQQHYTIPFTFGSGTRLEIKR
notes: anti-LILRB1 clone from mouse hybridoma
Human LILRA2
  binding result: binds

B4: LK-RB1-47 (antibody, human IgG4 S228P, kappa, V domains shown)
VH: QIQLVQSGPELKKPGETVKISCKASGYTFTTYGMSWVKQAPGKGLKWMGWINTYSGVPTYTDDFKGRFAFSVETSASTAYLQINNLKNEDTATYFCARRERDFYGNIFFPYWGQGSLVTVSA
VL: DIQMTQTTSSLSASLGDRVTISCRASQDISNYLNWYQQKPDGTVKLLIYYTSRIHSGVPSRFSGSGSGTDFSLTISNLDQEDIATYFCQQGHTLPWTFGGGTKVEIKR
notes: as for B3
Human LILRA2
  binding result: binds
Human LILRA1 [1]
  binding result: binds

B5: LK-RB1-48 (antibody, human IgG4 S228P, kappa, V domains shown)
VH: EVKLVESGGGLVQPGGSLKLSCAASGFTFSDYYMYWVRQTPEKRLEWVAYISNGGGISFYPDTVKGRFTISRDNAKNTLYLQMSRLKSEDTAIYYCASATKEVGAMDYWGQGTSVTVSS
VL: DIVMTQSQKFLSTTVGDRVSITCKASQNVGTAVAWYQQKPGQSPKILIYSASNRYTGVPDRFTGSGSGTDFTLTISNMQSEDLADYFCQQYSSYRTFGGGTKLEIKR
notes: as for B3
Human LILRA1 [1]
  binding result: binds

B6: LK-RB1-55 (antibody, human IgG4 S228P, kappa, V domains shown)
VH: B5 VH with G56D, S58T, K76R, N77S, K101T, Y108H
VL: B5 VL with L11M, Q42K, I46L, S50A, K102N
notes: as for B3
Human LILRA1 [1]
  binding result: binds

B7: LK-RB1-59 (antibody, human IgG4 S228P, kappa, V domains shown)
VH: QIQLVQSGPELKKPGETVKISCKASGYTFTTYGMSWVKQAPGKGLKWMGWINTYSGVPTYADDFKGRFAFSLETSASTAYLQINNLKNEDTATYFCARRRIYYGNKGYAMDYWGQGTSVTVSS
VL: DIQMTQSPASLSVSVGETVTITCRASENIYSNLVWYQQKQGKSPQLLVYTATNLADGVPSRFSGSGSGTQFSLKINSLQSEDFGSYYCQHFWGTPWTFGGGTKLEIKR
notes: as for B3
Human LILRA2
  binding result: binds
Human LILRA1 [1]
  binding result: binds

B8: LK-RB2-24 (antibody, human IgG4 S228P, kappa, V domains shown)
VH: QIQLVQSGPEVKKPGETVKISCKASGYTFTTYGMSWVKQAPGKGLKWMGWLNIYSGVPAYADDFKGRFAFSLESSASTAYLQINNLKNEDTATYFCARRENYDGYGMDYWGQGTSVTVSS
VL: DIVMTQSPATLSVTPGDRVSLSCRASQSISDYLHWYQQKSHESPRLLIKYASQSISGIPSRFSGSGSGSDFTLSINSVEPEDVGVYYCQNGHSFPYTFGGGTKLEIKR
Human LILRA1 [2]
  binding result: binds

B9: LK-RB1-5 (antibody, human IgG4 S228P, kappa, V domains shown)
VH: QVQLQQPGAELVKPGASVKLSCKASGYTFTDFWIHWVKQRPGQGLEWIGMIHPNSGSTNFNEKFRAKATLTVDKSSSTAYMRLSSLTSEDSAVYYCARSGDGYSNPMDYWGQGTSVTVSS
VL: QIVLSQSPAILSASPGEKVTLTCRASSSVSYMHWYQQKPGSSPKPWIYATSNLASGVPVRFSGSGSGTSYSLTISRMQTEDAATYYCQQWRRSPYTFGGGTKLEIKR
notes: Anti-LILRB1 antibody
[3]
  EC50: 1.16 nM
[4]
  EC50: 1.51 nM

B10: LK-RB1-39 (antibody, human IgG4 S228P, kappa, V domains shown)
VH: EVQLQQSGAELVRPGASVKLSCTASGFNIKDDYVHWVNQRPEQGLEWIGWIDPENGDTGYASKFQDKATITADTSSNTAYLHLSSLTSEDTAVYYCTTTRWTGSYWGQGTTLTVSS
VL: QIVLTQSPAIMSASPGEKVTITCSASSSVNYMHWFQQKPGSSPKLWIYSTANLASGVPARFSGSGSGTSYSLTISRMEAEDAATYYCQQRSSYPPTWTFGGGTKLEIKR
notes: Anti-LILRB1 antibody
[3]
  EC50: 0.36 nM

B11: LK-RB2-8 (antibody, human IgG4 S228P, kappa, V domains shown)
VH: QIQLVQSGPELKKPGETVKISCKASGYSFASYGMGWVKQAPGKGLKWLGWINTHSGVPTYADDFKGRFAFSLETSASTAYLQINNLKNEDTATYFCAHYGRPWFPYWGQGTLVTVSA
VL: DIQMTQSPASLSASVGETVTITCRTSENIYSYLAWYQQKQGKSPQLLVYNAKSLAEGVPSRFSGSGSGTQFSLRINSLQPEDFGTYYCQQHYETPLTFGAGTKLELKR
notes: Anti-LILRB2 antibody
[3]
  EC50: 19.8 nM

B12: LK-RB2-16 (antibody, human IgG4 S228P, kappa, V domains shown)
VH: B11 VH with S28T, A30T, S31T, G42E, L48M, H54N, V57A, A61G, P105A
VL: B11 VL with T25A, Q37H, K42E, S53T, R74K, T85S, Q90H, E93N, T94I
notes: Anti-LILRB2 antibody
[3]
  EC50: 5.45 nM

B13: LK-RB2-47 (antibody, human IgG4 S228P, kappa, V domains shown)
VH: QVQLKQSGPGLVQPSQSLSITCTVSGFSLISYGVHWVRQSPGKGLEWLGVIWSGGSTDYNAAFISRLSISKDNSKSQVFFKMNSLQADDTAIYYCARSFHYHGSTFDYWGQGTTLTVSS
VL: DIQMTQTTSSLSASLGDRVIISCRASQDINNYLNWYQQKPDGTVKLLIYFTSRLHSGVPSSFSGSGSGTDYSLTINNLEQEDIATYFCQQVNTLPYTFGGGTKLEIKR
notes: Anti-LILRB2 antibody
[3]
  EC50: 0.4 nM

B14: 15G8 (antibody, human IgG4 S228P, kappa, V domains shown)
VH: DVQLQGSGPGLVKPSETLSLTCSVTGYSITSGYYWNWIRQFPGKKLEWMGYISYDGSNNYNPSLKNRITISRDTSKNQFSLKLNSVTAADTATYYCAHGYSYYYAMDAWGQGTSVTVSS
VL: DIQMTQSPSSLSASVGDRVTITCRTSQDISNYLNWYQQKPGKAVKLLISYTSRLHSGVPSRFSGSGSGTDYTLTISSLQPEDFATYYCQQGNTLPTFGQGTKLEIKR
[3]
  EC50: 2.15 nM
[4]
  EC50: 760 nM

B15: LK-RB2-24 (antibody, human IgG4 S228P, kappa, V domains shown)
VH: B8 VH
VL: B8 VL
notes: Anti-LILRB2 antibody from mouse hybridoma; parental antibody of LK-RB2-24.h1 to h3
Biotinylated LILRB2 [5]
  Inhibition %: 25.9%
Biotinylated LILRB2 [6]
  Inhibition %: 95.2%
Human LILRB1-his
  Kd: 21.1 nM
  koff: 0.00406 s⁻¹
  kon: 192000 M⁻¹ s⁻¹
Biotinylated LILRB2 [7]
  Inhibition %: -4.04%
Biotinylated LILRB2 [8]
  Inhibition %: 91.1%
Biotinylated LILRB2 [9]
  Inhibition %: 95.7%
Biotinylated LILRB2 [10]
  Inhibition %: 48.4%
Biotinylated LILRB2 [11]
  Inhibition %: 22.1%
Human LILRB2-his
  Kd: 0.51 nM
  koff: 0.000484 s⁻¹
  kon: 950000 M⁻¹ s⁻¹
